Sequences and labels used below:
B1: VEGF-D (ligand, UniProt O43915 89-205, looked up)
chain: FAATFYDIETLKVIDEEWQRTQCSPRETCVEVASELGKSTNTFFKPPCVNVFRCGGCCNEESLICMNTSTSYISKQLFEISVPLTSVPELVPVKVANHTGCKCLPTAPRHPYSIIRR
notes: Bought reagent
B2: VEGF-C (ligand, UniProt P49767 112-227, looked up)
chain: AHYNTEILKSIDNEWRKTQCMPREVCIDVGKEFGVATNTFFKPPCVSVYRCGGCCNSEGLQCMNTSTSYLSKTLFEITVPLSQGPKPVTISFANHTSCRCMSKLDVYRQVHSIIRR
notes: Bought reagent
B3: PDGF-BB (ligand, UniProt P01127 82-190, looked up)
chain: SLGSLTIAEPAMIAECKTRTEVFEISRRLIDRTNANFLVWPPCVEVQRCSGCCNNRNVQCRPTQVQLRPVQVRKIEIVRKKPIFKKATVTLEDHLACKCETVAAARPVT
notes: Bought reagent
B4: VEGFR2-Fc (Met1-Glu764) (Fc fusion)
chain: ASVGLPSVSLDLPRLSIQKDILTIKANTTLQITCRGQRDLDWLWPNNQSGSEQRVEVTECSDGLFCKTLTIPKVIGNDTGAYKCFYRETDLASVIYVYVQDYRSPFIASVSDQHGVVYITENKNKTVVIPCLGSISNLNVSLCARYPEKRFVPDGNRISWDSKKGFTIPSYMISYAGMVFCEAKINDESYQSIMYIVVVVGYRIYDVVLSPSHGIELSVGEKLVLNCTARTELNVGIDFNWEYPSSKHQHKKLVNRDLKTQSGSEMKKFLSTLTIDGVTRSDQGLYTCAASSGLMTKKNSTFVRVHEKPFVAFGSGMESLVEATVGERVRIPAKYLGYPPPEIKWYKNGIPLESNHTIKAGHVLTIMEVSERDTGNYTVILTNPISKEKQSHVVSLVVYVPPQIGEKSLISPVDSYQYGTTQTLTCTVYAIPPPHHIHWYWQLEEECANEPSQAVSVTNPYPCEEWRSVEDFQGGNKIEVNKNQFALIEGKNKTVSTLVIQAANVSALYKCEAVNKVGRGERVISFHVTRGPEITLQPDMQPTEQESVSLWCTADRSTFENLTWYKLGPQPLPIHVGELPTPVCKNLDTLWKLNATMFSNSTNDILIMELKNASLQDQGDYVCLAQDRKTKKRHCVVRQLTVLERVAPTITGNLENQTTSIGESIEVSCTASGNPPPQIMWFKDNETLVEDSGIVLKDGNRNLTIRRVRKEDEGLYTCQACSVLGCAKVEAFFIIEGAQEKTNLE
notes: also called VEGFR2-Fc with the full extracellular domain; Full VEGFR2 extracellular domain; not shown: Fc part

Assay [1] deals with B4. The assay is described as follows: SPR Biacore T200 (Example 8).
The target in assay [2] is B4. The assay can be described thus: SPR, PDGF coupled to CM5 chip, VEGFR2-Fc in flow; row label printed PDGF-BR. The text has this: Nevertheless, it was found in the preliminary detection experiments that PDGF family molecules (purchased from R&D Systems Inc.) were prone to produce non-specific binding in the chip, resulting in a pseudo-elevation in measured values, such that the detection could not be completed. Therefore, PDGF-AA, PDGF-AB, PDGF-BB and PDGF-CC molecules were separately loaded through a coupling reaction on a CM5 chip, followed by influx of the recombinant receptor molecules, thus effectively eliminating the impact of non-specific binding on affinity determination.
(Surface plasmon resonance follows binding to a sensor surface in real time, without labels.)

Assay [3] deals with B1. The assay is described as follows: blocking ELISA: His-VEGF-D premixed with sample, binding to coated VEGFR3-Fc read with anti-His-HRP. How it is done:
(§1) During the blocking period, each recombinant receptor molecule was serially diluted from high to low concentrations, mixed evenly with 10 ng/well of VEGF-C or 500 ng/well of VEGF-D (both labeled with His-tag), allowing for incubation at room temperature for 30 minutes. […] The plates were washed with PBST, then TMB was added for color development, terminated with 5% hydrochloric acid solution, and finally, the OD values at 450 nm were read using a microplate reader.
Background: ELISA stands for enzyme-linked immunosorbent assay.

For assay [4], the target named is B1. The assay is described as above. How it is done: as §1
The source holds these as a separate data set.

Assay [5] concerns the target B1. The assay can be described thus: blocking ELISA: His-VEGF-D premixed with sample, binding to coated VEGFR2-Fc read with anti-His-HRP. The protocol:
as §1, with “100” for “10”, “or” for “or 500 ng/well of”, “then anti-polyhistidine secondary antibody conjugated with horseradish peroxidase was added to allow for incubation and binding at room temperature for 1 hour. Then the plates were washed with PBST,” for “then”

The target of the assay “VEGF-C” is B2. The assay is described as follows: ELISA binding to VEGF-C, absorbance 450 nm.
Description: VEGF-A165, VEGF-C and VEGF-D polypeptide molecules were purchased from ACROBiosystems Inc. VEGF molecules at 100-300 ng/well prepared in PBS were used for coating overnight at 4° C., the next day, the plates were washed with PBS, and 1% BSA solution was added to block for 2 hours at room temperature, after which the plates were washed again with PBS. […] Goat anti-human Fc secondary antibody conjugated with horseradish peroxidase diluted in PBT was added, followed by incubation at room temperature and 300 rpm for 1 hour, after that, the plates were washed three times with PBST solution. Then TMB was added for color development, terminated with 5% hydrochloric acid solution, and finally, the OD values at 450 nm were read using a microplate reader.
The target of assay [6] is B1. The assay is described as follows: blocking ELISA: His-VEGF-D premixed with sample, binding to coated VEGFR2-Fc read with anti-His-HRP. The protocol: as §1, with “100” for “10”, “or” for “or 500 ng/well of”, “then anti-polyhistidine secondary antibody conjugated with horseradish peroxidase was added to allow for incubation and binding at room temperature for 1 hour. Then the plates were washed with PBST,” for “then”
This is another data set of the same source.

For orientation: Kd means the free concentration of one partner at which half of the binding sites on the other are occupied at equilibrium, for simple one-to-one binding. What is called koff is a measure of how fast the partners let go of each other. A lower koff goes with slow dissociation. As a reminder, the kon is a measure of how fast the partners come together. Read a low kon as slow association. On to B1, for which, in the assay with VEGFR2-Fc (Met1-Glu764) [1], the Kd was found to be 21 nM, the koff was determined as 0.000673 s⁻¹ and the kon turned out to be 32100 M⁻¹ s⁻¹.
Taken in the same sequence, the figures for B2 were 16.7 nM, 0.000452 s⁻¹ and 27100 M⁻¹ s⁻¹.
Consider B3, for which, in the assay with VEGFR2-Fc (Met1-Glu764) [2], binding was characterised by a dissociation constant (Kd) of 14.1 nM. This lies in the double-digit nanomolar range.
The term EC50 denotes the concentration at which the effect is half-maximal. Low readings indicate an effect from little substance, high ones a need for much substance. As for B4, the EC50 with VEGF-D [3] worked out at 33.4 nM; in the assay with VEGF-D [4], 33.4 nM; in the assay with VEGF-D [5], 31.5 nM; with VEGF-C it was 269 nM; in the assay with VEGF-D [6], 31.5 nM.
